Data: doi:10.1101/2022.03.30.486377 (bioRxiv, 2022)

Key:
Experiment in all cases: ELISA
[1] = target: SARS-CoV-2 S PentaPro (F817), prefusion S trimer (SARS-CoV-2, Wuhan-Hu-1 sequence, UniProt P0DTC2, stabilised)
[2] = target: SARS-CoV-2 S2 PentaPro in prefusion conformation (SARS-CoV-2, Wuhan-Hu-1 sequence, UniProt P0DTC2, stabilised)
[3] = target: SARS-CoV-2 S2 in postfusion conformation (SARS-CoV-2 (D614G ectodomain; D614G …, UniProt P0DTC2, strain)

Measured: binding result

B1: C13B8 mAb (antibody, V domains shown)
VH: QVQLQESGPGLVQPSQTLTLTCTVSGDSISNEDYHWTWIRQHPGKGLEWMGYLQYSGNTNYNPSLKSRMTISVDTSKNQFSLRLNSVTAADTAVYFCATSIVLTGMSNKIQPFDYWGQGTLVTVSS
VL: SYELTQPPSVSVSPGQMARITCSGEALPKKYAYWYQQKGGQFPVLVIYKDTERPSGIPERFSGSSSGTIVTLTISGVQPEDEADYYCLSADTSGTWVFGGGTKLTVL
binds: [1] | [2] | [3]

B2: C13C9 mAb (antibody, V domains shown)
VH: EVQLVQSGPEVKKPGTSARVSCKASGFTSKNTALQWVRQARGQPLEWMGWIDISNYITNYAQKFRGRLTITWDLSASMAYMELSSLRSEDTAVYYCAAVGKDDDVLTGGNKYFDHWGQGTLVTVSS
VL: SYELTQPPSVSVSPGQTARITCSGDALPKKYAYWYQQKSGQAPVLVIHEDDKRPSGIPGRFSASSSGTTATLTISGAQVEDEADYYCYSTDTNDNHAFGSGTKLTVL
binds: [1] | [2] | [3]

B3: C77G12 mAb (antibody, V domains shown)
VH: EVQLVESGGGVVQPGRSLRISCAVSGFTFGSYAMHWVRQAPGKGLEWVGVMSSDGHNEYYADSVKGRFTISRDNSRNKLYLEMNNLRVDDTAVFYCARGSDYVDDSPPLHYWGQGTLVTVSS
VL: DIQLTQSPSSLSASIGDRVTITCRASQDIANKLAWFQQAPGKAPKSLIYAASRLQSGVPSQFSGSGSGTDFTLTIESLQAGDFATYFCQQYDSFPFTFGPGTKVDVK
binds: [1] | [2] | [3]

B4: VN01H1 mAb (antibody, V domains shown)
VH: EVQLVESGGGLVLPGGSLRLSCSASGFTFSDFSMHWVRQSPGKGLEYVSAITSSGSSTYYPDSVKGRFTISRDNSKNTLYLQMGSLRVEDTAVYWCVKNSDVFRFPHLYFDVWGRGTLVTVSS
VL: not shown
binds: [1] | [2] | [3]

B5: VP12E7 mAb (antibody, V domains shown)
VH: QVQLVQSGGGVVQPGESLRLSCSGSGFTFNNYIMHWVRQAPGQGLDYVSGIGSDGRNTNYGDSVKGRFTISRDNSKDTLYLQMTSLRAEDTAFYYCVKGLDVLRFLDLSTPSGERLDAFDIWGQGTMVTVSS
VL: DIVMTQSPSFLSASVGDRVTITCRASQGISNYLAWYQQKPGKAPHLLIYAASTLQSGVPSRFSGSGSGTEFTLTISSLQPEDFATYYCQQLNSYPLFTFGPGTKVDIE
binds: [1] | [2] | [3]
